Numbering of substitutions follows the chain as printed.
T1: Canine IL-31RA ECD-10His (canine, biotin-labeled in the Octet assay (site not stated))
T1 construct: The ELISA and Octet protocols say only 'IL-31RA' or 'canine IL-31RA'; also called cIL-31RA; canine IL-31 receptor alpha extracellular domain, HIS-tagged
T1 chain: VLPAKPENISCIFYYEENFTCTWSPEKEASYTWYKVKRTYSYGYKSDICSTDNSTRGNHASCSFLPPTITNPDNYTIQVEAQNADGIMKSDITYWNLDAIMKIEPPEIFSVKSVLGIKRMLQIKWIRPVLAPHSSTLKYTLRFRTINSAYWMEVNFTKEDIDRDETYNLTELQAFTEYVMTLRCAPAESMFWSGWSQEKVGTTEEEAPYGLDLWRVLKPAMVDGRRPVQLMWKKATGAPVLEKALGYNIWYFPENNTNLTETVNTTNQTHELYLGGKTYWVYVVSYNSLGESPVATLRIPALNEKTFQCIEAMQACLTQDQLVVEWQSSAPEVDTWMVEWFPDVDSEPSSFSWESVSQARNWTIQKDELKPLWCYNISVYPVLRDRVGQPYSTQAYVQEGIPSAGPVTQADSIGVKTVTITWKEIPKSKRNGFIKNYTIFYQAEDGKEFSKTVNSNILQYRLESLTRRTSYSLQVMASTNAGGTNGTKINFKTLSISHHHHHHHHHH

B1: 224G3 (antibody, V domains shown)
VH: EVQLVESGGDLVKPGGSLKLSCAASGFTFSSYGMSWVRQTPDKRLEWVATISNGGSYTYYPDSVKGRFTISRDNAKNTLYMQMSSLKSEDTAMYYCARNEPPDYWGQGTSVTVSS
VL: QIVLTQSPAIMSASLGERVTMTCTASSSVGSSYLHWYQQKPGSSPKLWIYDTSNLASGVPVRFSGSGSGTSYSLTISSMEAEDAATYYCHQYHRSPYTFGGGTKLEIK
notes: Mouse monoclonal antibody from a hybridoma; also called mouse mAb 224G3
B2: Chimeric 218D9 (antibody, V domains shown)
VH: QVTLKESGPGILQPSQTLSLTCSFSGFSLSTFGRGVGWIRQPSGKGLDWLTHIWWDDDKYYNPALKSRLTISKDTSKNQVFLKIANVDTADTATYYCARIAGGLRRAPYAMDSWGQGTSVTVSS
VL: DIQMTQSPASLSVSVGETVTITCRASENIYSSLAWYQQKQGKSPQLLVYAATNLADGVPSRFSGSGSGTQYSLKINSLQSEDSGNYYCQHFRDTPPTFGGGTKLEIK
notes: canine constant regions not specified; also called mouse-canine chimeric 218D9 antibody
B3: c218D9VH3VL2 (antibody, V domains shown)
VH: EVTLQESGPGLVKPSQTLSLTCSFSGFSLSTFGRGVGWIRQRPGRGLEWMGHIWWDDDKYYNPALKSRLSITKDTAKNQFSLQLSSMTTEDTAVYYCARIAGGLRRAPYAMDSWGQGTLVTVSS
VL: DIVMTQTPLSLSVSPGETASISCRASENIYSSLAWFRQKPGQSPQLLIYAATNLADGVPDRFSGSGSGTDFTLRISRVEADDTGVYYCQHFRDTPPTFGQGTKLEIKR
notes: Caninized antibody; chains tied by name to c218D9VH3-cIgGBm and c218D9VL2-cCK; also called c218D9VH3L2
B4: c218D9VH4VL2 (antibody, V domains shown)
VH: B3 VH with F80V, S81F
VL: B3 VL
notes: Caninized antibody; chains tied by name to c218D9VH4-cIgGBm and c218D9VL2-cCK; also called c218D9VH4L2
B5: c218D9VH4VL3 (antibody, V domains shown)
VH: B3 VH with F80V, S81F
VL: B3 VL with I48V, F71Y
notes: Caninized antibody; chains tied by name to c218D9VH4-cIgGBm and c218D9VL3-cCK; also called c218D9VH4L3
B6: c218D9VH3VL3 (antibody, V domains shown)
VH: B3 VH
VL: B3 VL with I48V, F71Y
notes: Caninized antibody; chains tied by name to c218D9VH3-cIgGBm and c218D9VL3-cCK; also called c218D9VH3L3
B7: c51F8VH4VL7 (antibody, V domains shown)
VH: EVQLVQSGAEVVKPGASVKVSCTASGFNIKNTFIHWVRQRPGAGLDWIGRIDPANGNTKYAPKFQGRATLTADTSTNTAYMQLSSLRAGDIAVYYCARYYYVSSYFDVWGTGTLVTVSS
VL: DIVMTQTPLSLSVSPGETASISCKASQSVTNDVTWFRQKPGQSPKLLIYSASNRYTGVPDRFSGSGSGTDFTLRISTVEADDTGVYYCQQDYSSPWTFGQGTKLEIKR
notes: Caninized antibody; chains tied by name to c51F8VH4-cIgGBm and c51F8VL7-cCK; also called c51F8VH4L7
B8: 85C10 (antibody, V domains shown)
VH: EFQLQQSGPELVKPGASVKISCKASGYSFTDYSINWVKQSNGKSLEWIGVINPNYGTSSHNQKFKGKATMTVDQSSSTAYMQLNSLTSEDSAVYYCARALDDYYFYWYFDVWGIGTTVTVSS
VL: DVVMTQTPLSLPVSLGDQASISCRSSQSLVHTNGNTYLHWYLQKPGQSPKLLIYKVSNRFSGVPDRFSGSGSGTDFTLKISRVEAEDLGVYFCSQTTHVPLTFGAGTKLELK
notes: Mouse monoclonal antibody from a hybridoma; also called mouse mAb 85C10
B9: 218D9 (antibody, V domains shown)
VH: B2 VH
VL: B2 VL
notes: Mouse monoclonal antibody from a hybridoma; also called mouse mAb 218D9
B10: 209G5 (antibody, V domains shown)
VH: EVQLQQSVAELVRPGASVKLSCTASGFNIKNTYMHWVKERPEQGLEWIGRIDPANGNSKYAPKFQGKATITTDTSSNTAYLQLSSLTSEDTAIYYCARYYYVSSHFDVWGTGTTVTVSS
VL: SIVMTQTPKFLLVSAGDRVTITCKASQSVTNDVTWYQQKPGQSPKLLIYYASNRYTGVPDRFTGSGYGTDFTFTISTVQAEDLAVYFCQQDYSSPFTFGSGTKLEIK
notes: Mouse monoclonal antibody from a hybridoma; also called mouse mAb 209G5

Target: T1, Canine IL-31RA ECD-10His
Assay: BLI (Octet); end of the range tied to 224G3 by Table 2
Procedure: (§1) All kinetics measurements were performed by Octet HTX using SA biosensors and Data Acquisition 12.0 software. A biotin-labeled antigen (canine IL-31RA) was loaded onto the pre-rehydrated SA biosensors for 120s at a concentration of 1 μg/mL. Next, the biosensors were placed into Octet Kinetics Buffer (PBS+0.02% Tween 20, 0.1% BSA) for the blocking phase for 120s. Then, for the association phase, antigen loaded biosensors were placed into 2-fold serial dilutions from 100 nM down to 3.13 nM of anti-IL-31RA monoclonal antibody in Octet Kinetics Buffer for 300s. The last well was buffer alone and that sensor was used for reference sensor subtraction. Finally, the biosensors were placed into Octet Kinetics Buffer for the dissociation phase for 300s. Analysis was performed using Data Analysis 12.0 software and curves were fitted using a 1:1 binding model.

Row | Kd [nM] | Binder
1 | 0.001 | B1

Target: T1, Canine IL-31RA ECD-10His
Assay: BLI (Octet), biotin-labeled canine IL-31RA on SA biosensors
Procedure: as §1
Two of the top blocking antibodies: 51F8 and 218D9, had KDs of about 0.2 nM and about 0.07 nM respectively (see, Table 5B below).

Row | Kd [nM] | koff [s⁻¹] | kon [M⁻¹ s⁻¹] | Binder
2 | 0.0698 | 4.63e-05 | 664000 | B2
3 | 0.528 | 0.000338 | 641000 | B3
4 | 0.305 | 0.000165 | 541000 | B4
5 | 0.0447 | 2.69e-05 | 601000 | B5
6 | 0.0416 | 2.75e-05 | 661000 | B6
7 | 1.23 | 0.000512 | 416000 | B7

What follows are binders tested against T2, canine IL-31 receptor complex (IL-31RA and OSMR) on Ba/f3-OI cells (canine) (assay: cell-based or functional assay).

Row | IC50, inhibition of IL-31 mediated STAT-3 phosphorylation in Ba/f3-OI cells [nM] | Binder
8 | ~2.2 | B2
9 | ~230 | B3
10 | ~8.3 | B4
11 | ~2.9 | B5
12 | ~2.5 | B6

Target: T1, Canine IL-31RA ECD-10His
Assay: BLI (Octet); end of the range tied to 85C10 by Table 2
Procedure: as §1

Row | Kd [nM] | Binder
13 | 0.85 | B8

Target: T2, canine IL-31 receptor complex (IL-31RA …)
Assay: cell-based or functional assay
Remark: another data set of the same source

Row | IC50: inhibition of IL-31 mediated STAT-3 phosphorylation in Ba/f3-OI cells (AlphaLISA p-STAT3), the unit is that of the x axis 'Antibody Log Conc. (nM)' [nM] | Binder
14 | 2.24 | B2
15 | 226 | B3
16 | 8.27 | B4
17 | 2.5 | B5
18 | 2.97 | B6

Target: T2, canine IL-31 receptor complex (IL-31RA …)
Assay: cell-based or functional assay
Remark: another data set of the same source

Row | IC50 (read off the curve): inhibition of IL-31 mediated STAT-3 phosphorylation in Ba/f3-OI cells [ng/mL] | Binder
19 | ~2000 | B9
20 | ~2000 | B10

Target: T1, Canine IL-31RA ECD-10His
Assay: BLI (Octet HTX), biotin-labeled canine IL-31RA on SA biosensors, 1:1 fit
Procedure: These constants reflect the binding affinity of the individual monoclonal antibodies for canine IL-31 RA.
as §1

Row | Kd [nM] | koff [s⁻¹] | kon [M⁻¹ s⁻¹] | Binder
21 | 0.0698 | 4.63e-05 | 664000 | B9
22 | 0.000964 | 1.08e-06 | 1.12e+06 | B1
23 | 0.851 | 0.000363 | 427000 | B8
24 | 0.131 | 4.87e-05 | 370000 | B10

Target: T1, Canine IL-31RA ECD-10His
Assay: ELISA on coated canine IL-31RA, anti-canine IgG Fc-HRP (Example 11), the unit is that of the x axis 'Ab Log Conc. (ng/mL)'
Procedure: 1. Coat 200 ng/well of IL-31RA on an immunoplate and incubate the plate at 4° C. overnight. [0257] 2. Wash the plate 3 times with phosphate buffered saline (PBS) containing 0.05% Tween 20 (PBST). […] 3. Block the plate with 0.5% bovine serum albumin (BSA) in PBS for 45-60 min at room temperature. [0259] 4. Wash the plate 3 times with PBST. [0260] 5. Three-fold dilute the caninized antibody in each column or row of dilution plate starting at 0.3 μg/mL. [0261] 6. Transfer the diluted caninized antibody into each column or row of the immunoplate, and incubate the plate for 45-60 min at room temperature. [0262] 7. Wash the plate 3 times with PBST. [0263] 8. Add 1:4000 diluted horseradish peroxidase labeled anti-canine IgG Fc into each well of the plate, and then incubate the plate for 45-60 min at room temperature. [0264] 9. Wash the plate 3 times with PBST. [0265] 10. Add 3,3′,5,5′-tetramethylbenzidine (TMB) Substrate into each well of the plate, and incubate the plate for 10 to 15 min at room temperature to develop the color. [0266] 11. Add 100 μL 1.5 M phosphoric acid into each well to stop the reaction. Read plate at 450 nm with 540 nm reference wavelength.
As depicted in FIGS. 7A-7E, the caninized antibodies were tested for their reactivity to canine IL-31RA.

Row | EC50 [ng/mL] | Binder
25 | 3.15 | B2
26 | 4.29 | B3
27 | 4.1 | B4
28 | 3.58 | B5
29 | 3.22 | B6
30 | 11.3 | B7

Source: US20250340654A1 (INTERVET, published 2025)
